± gives the uncertainty stated by the source.
B1: Connector enhancer of kinase suppressor of ras 2, residues 9 to 71; numbered along this chain, Q8WXI2 (parent)
chain: SKWSPSQVVDWMKGLDDCLQQYIKNFEREKISGDQLLRITHQELEDLGVSRIGHQELILEAVD

Variants of: B1
Assay: abundance fitness (aPCA) (normalised: wild type 0, dead -1); higher = more abundant; growth selection in yeast, the domain comes from the species named
Conditions: Homo sapiens

In order of falling abundance fitness:
1. R51S  0.088 ± 0.027
2. G53D  0.086 ± 0.042
3. G53E  0.085 ± 0.039
4. G53N  0.084 ± 0.081
5. R51C  0.082 ± 0.034
6. G53K  0.077 ± 0.037
7. R51Q  0.071 ± 0.035
8. R51N  0.063 ± 0.046
9. R51T  0.063 ± 0.027
10. G53Q  0.061 ± 0.034
11. R51V  0.061 ± 0.029
12. G53R  0.046 ± 0.027
13. G53T  0.042 ± 0.027
14. G53A  0.037 ± 0.033
15. Q35R  0.033 ± 0.03
16. E43Q  0.03 ± 0.037
17. R51I  0.03 ± 0.03
18. R51H  0.018 ± 0.039
19. E43D  0.011 ± 0.034
20. E43R  0.006 ± 0.023
21. R51F  0.006 ± 0.033
22. L47I  0.003 ± 0.064
23. R38K  -0.002 ± 0.033
24. E43K  -0.003 ± 0.055
25. G53M  -0.009 ± 0.049
26. G53H  -0.015 ± 0.048
27. R51L  -0.015 ± 0.026
28. R38A  -0.031 ± 0.04
29. D34Q  -0.031 ± 0.052
30. R51M  -0.042 ± 0.039
31. G53C  -0.05 ± 0.036
32. Q35K  -0.054 ± 0.057
33. D34S  -0.06 ± 0.027
34. R38H  -0.061 ± 0.043
35. D34R  -0.075 ± 0.021
36. G53F  -0.079 ± 0.026
37. L47M  -0.083 ± 0.039
38. R51G  -0.083 ± 0.026
39. V49I  -0.088 ± 0.049
40. Q35A  -0.088 ± 0.033
41. R38N  -0.098 ± 0.065
42. R38G  -0.106 ± 0.026
43. R51W  -0.115 ± 0.036
44. D34T  -0.118 ± 0.037
45. Q35N  -0.119 ± 0.12
46. D34Y  -0.12 ± 0.037
47. T40G  -0.12 ± 0.027
48. E43N  -0.121 ± 0.035
49. E43G  -0.131 ± 0.034
50. R38Q  -0.134 ± 0.039
51. E43S  -0.137 ± 0.026
52. D34W  -0.142 ± 0.038
53. E43A  -0.143 ± 0.03
54. E43T  -0.151 ± 0.026
55. G53W  -0.151 ± 0.03
56. Q35M  -0.152 ± 0.049
57. Q35D  -0.158 ± 0.05
58. D34V  -0.159 ± 0.029
59. R38D  -0.163 ± 0.05
60. E43M  -0.165 ± 0.042
61. Q35E  -0.172 ± 0.057
62. E43H  -0.179 ± 0.049
63. T40K  -0.186 ± 0.042
64. R38C  -0.189 ± 0.034
65. Q35V  -0.19 ± 0.037
66. T40N  -0.201 ± 0.052
67. E43V  -0.257 ± 0.036
68. Q35S  -0.291 ± 0.039
69. R38E  -0.302 ± 0.053
70. R38M  -0.307 ± 0.05
71. L36I  -0.325 ± 0.041
72. T40D  -0.327 ± 0.091
73. Q35C  -0.328 ± 0.061
74. Q35F  -0.33 ± 0.058
75. E43C  -0.332 ± 0.036
76. L36M  -0.334 ± 0.045
77. V49C  -0.374 ± 0.033
78. R38L  -0.377 ± 0.029
79. Q35Y  -0.39 ± 0.074
80. Q35L  -0.392 ± 0.039
81. E43L  -0.41 ± 0.03
82. R38F  -0.416 ± 0.049
83. L47V  -0.423 ± 0.025
84. T40C  -0.426 ± 0.04
85. T40Q  -0.437 ± 0.038
86. R38Y  -0.446 ± 0.093
87. E43F  -0.455 ± 0.042
88. E43I  -0.46 ± 0.045
89. E43Y  -0.472 ± 0.044
90. Q35G  -0.485 ± 0.033
91. E43W  -0.498 ± 0.04
92. T40A  -0.499 ± 0.034
93. Q35W  -0.523 ± 0.055
94. R38I  -0.543 ± 0.046
95. T40E  -0.548 ± 0.038
96. R38W  -0.549 ± 0.038
97. G48K  -0.552 ± 0.058
98. L47C  -0.592 ± 0.083
99. T40H  -0.6 ± 0.076
100. L47F  -0.612 ± 0.072
101. V49L  -0.621 ± 0.028
102. L47W  -0.622 ± 0.047
103. G48D  -0.64 ± 0.075
104. G48N  -0.66 ± 0.078
105. G48S  -0.66 ± 0.036
106. R38P  -0.681 ± 0.055
107. L47A  -0.681 ± 0.032
108. L47R  -0.688 ± 0.038
109. G48E  -0.692 ± 0.055
110. G48C  -0.698 ± 0.055
111. G48P  -0.704 ± 0.11
112. L36V  -0.713 ± 0.044
113. L36F  -0.715 ± 0.091
114. L47Y  -0.72 ± 0.067
115. L47P  -0.762 ± 0.048
116. L36E  -0.769 ± 0.039
117. L36K  -0.775 ± 0.075
118. V49D  -0.777 ± 0.051
119. L47N  -0.783 ± 0.059
120. T40P  -0.784 ± 0.05
121. L47H  -0.785 ± 0.08
122. L47E  -0.795 ± 0.038
123. L47T  -0.805 ± 0.049
124. G48H  -0.813 ± 0.1
125. L47S  -0.813 ± 0.041
126. L36R  -0.82 ± 0.038
127. V49A  -0.833 ± 0.044
128. L47Q  -0.838 ± 0.073
129. G48A  -0.844 ± 0.053
130. L36G  -0.845 ± 0.052
131. L36S  -0.846 ± 0.04
132. V49Q  -0.846 ± 0.065
133. L36D  -0.847 ± 0.048
134. L36N  -0.854 ± 0.075
135. L47D  -0.857 ± 0.061
136. L47G  -0.857 ± 0.038
137. V49T  -0.857 ± 0.062
138. G48T  -0.865 ± 0.08
139. V49F  -0.866 ± 0.12
140. V49W  -0.866 ± 0.052
141. G48M  -0.871 ± 0.091
142. V49P  -0.875 ± 0.056
143. T40V  -0.877 ± 0.04
144. L36T  -0.88 ± 0.06
145. T40I  -0.893 ± 0.093
146. L36Q  -0.898 ± 0.087
147. V49E  -0.903 ± 0.054
148. Q35P  -0.903 ± 0.074
149. T40M  -0.907 ± 0.082
150. V49K  -0.925 ± 0.037
151. V49H  -0.926 ± 0.079
152. L36P  -0.928 ± 0.069
153. T40W  -0.957 ± 0.07
154. L36A  -0.958 ± 0.056
155. L36C  -0.961 ± 0.089
156. L36H  -0.971 ± 0.12
157. E43P  -0.987 ± 0.077
158. G48L  -0.991 ± 0.055
159. G48V  -1.01 ± 0.064
160. L36Y  -1.01 ± 0.086
161. L36W  -1.04 ± 0.12
162. G48W  -1.07 ± 0.071
163. V49Y  -1.07 ± 0.11
164. T40L  -1.07 ± 0.076
165. V49N  -1.1 ± 0.13
166. T40F  -1.21 ± 0.37
167. G48I  -1.29 ± 0.33
